Test [1] addresses T1, anti-CD28 scFv (VH-linker 1-VL) (biotinylated (site not stated)).
T1 construct: Captured as biotinylated scFv on neutravidin coated plates in the phage ELISA
Description: phage ELISA; biotinylated scFv on neutravidin plate; anti-M13-HRP.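 Also: crude clonal phage supernatant added to wells pre-incubated with soluble CD28 protein or only blocking buffer, then washed, bound phage read out with an HRP-linked anti-M13 antibody.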 A general note: An ELISA detects its analyte on a solid surface through an enzyme-linked reagent.

Test [2] concerns the target T1, anti-CD28 scFv (VH-linker 1-VL). Description: phage ELISA; scFv wells pre-incubated with soluble CD28 (competitor).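 Also: crude clonal phage supernatants added to wells pretreated with soluble CD28 in blocking buffer, bound phage read via HRP-linked anti-M13 antibody, reference wells got blocking buffer only.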

T1 sequence (scFv, as listed by the source): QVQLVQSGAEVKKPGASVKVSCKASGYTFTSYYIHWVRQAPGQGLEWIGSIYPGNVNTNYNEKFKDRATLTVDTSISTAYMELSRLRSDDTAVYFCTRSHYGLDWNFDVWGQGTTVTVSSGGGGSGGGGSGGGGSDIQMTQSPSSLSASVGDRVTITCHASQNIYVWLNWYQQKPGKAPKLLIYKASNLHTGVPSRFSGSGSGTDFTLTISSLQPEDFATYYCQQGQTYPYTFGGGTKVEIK

Take MYWCATSMWNRCFV (on phage (pIII fusion)) [Phage-262 clonal phage peptide]: in test [1], the “CD28 scFv signal” value was determined as 0.398. Further, in test [2], the “CD28 scFv signal in presence of CD28” value amounted to 0.415.
On the same counts, the results for MDWCPMFLWHECFN (on phage (pIII fusion)) [Phage-309 clonal phage peptide] are 2.38 and 0.591.
On the same counts, the results for MDWCPRFLWHECFN (on phage (pIII fusion)) [Phage-257 clonal phage peptide] are 2.59 and 0.351.
Turning to MDWCPMFMWHECFN (on phage (pIII fusion)) [Phage-261 clonal phage peptide], the “CD28 scFv signal” value in test [1] is 2.23. Besides, in test [2], the “CD28 scFv signal in presence of CD28” value is 1.04.
On the same counts, the results for MDWCPMFLWDECFN (on phage (pIII fusion)) [Phage-318 clonal phage peptide] are 2.29 and 0.203.
For MDWCPRNLWHACFN (on phage (pIII fusion)) [Phage-259 clonal phage peptide] the same measures were 1.57 and 0.112.
For the molecule MDWCPRDFWAFCFF (on phage (pIII fusion)) [Phage-270 clonal phage peptide], the “CD28 scFv signal” value in test [1] came out at 2.37. The “CD28 scFv signal in presence of CD28” value in test [2] was determined as 0.655.
In the case of MDWCPVFMWNECFN (on phage (pIII fusion)) [Phage-260 clonal phage peptide], the “CD28 scFv signal” value in test [1] stood at 2.66. Moreover, the “CD28 scFv signal in presence of CD28” value in test [2] was 0.356.
For MDWCPSDMWAHCYN (on phage (pIII fusion)) [Phage-249 clonal phage peptide] the same measures were 1.21 and 0.109.
As for VTSCPTTMWNRCFS (on phage (pIII fusion)) [Phage-266 clonal phage peptide], the “CD28 scFv signal” value in test [1] stood at 1.22. The “CD28 scFv signal in presence of CD28” value in test [2] stood at 0.546.
Consider DSFCTWSAWQECGR (on phage (pIII fusion)) [Phage-269 clonal phage peptide], for which the “CD28 scFv signal” value in test [1] came out at 0.13. Further, the “CD28 scFv signal in presence of CD28” value in test [2] was 0.101.
For MTLCLSVDLVHCWY (on phage (pIII fusion)) [Phage-267 clonal phage peptide] the same measures were 0.632 and 0.093.
As for MDWCPRFMWSECFS (on phage (pIII fusion)) [Phage-251 clonal phage peptide], the “CD28 scFv signal” value in test [1] was found to be 1.01. The “CD28 scFv signal in presence of CD28” value in test [2] came to 0.137.
As to MDWCPRHMWINCFA (on phage (pIII fusion)) [Phage-252 clonal phage peptide], the “CD28 scFv signal” value in test [1] stood at 0.92. Also, the “CD28 scFv signal in presence of CD28” value in test [2] came to 0.165.
In the case of MDWCPRFMWAECFN (on phage (pIII fusion)) [Phage-247 clonal phage peptide], the “CD28 scFv signal” value in test [1] was found to be 2.6. Further, the “CD28 scFv signal in presence of CD28” value in test [2] was found to be 0.341.
As to MDWCPRHMWHECFA (on phage (pIII fusion)) [Phage-263 clonal phage peptide], the “CD28 scFv signal” value in test [1] came out at 2.52. In addition, the “CD28 scFv signal in presence of CD28” value in test [2] was determined as 0.298.
On the same counts, the results for MDWCPKVMWHYCFA (on phage (pIII fusion)) [Phage-250 clonal phage peptide] are 1.14 and 0.252.
Consider MDWCPRNMWHHCFD (on phage (pIII fusion)) [Phage-248 clonal phage peptide], for which the “CD28 scFv signal” value in test [1] is 1.6. For the same molecule, in test [2], the “CD28 scFv signal in presence of CD28” value came to 0.524.
As to MDWCPFDLWHVCYN (on phage (pIII fusion)) [Phage-256 clonal phage peptide], the “CD28 scFv signal” value in test [1] was 2.6. Further, in test [2], the “CD28 scFv signal in presence of CD28” value turned out to be 0.651.
For MVGCATSMWNRCLT (on phage (pIII fusion)) [Phage-253 clonal phage peptide] the same measures were 0.77 and 0.746.

Source of the values: US20230357447A1 (JANUX THERAPEUTICS, published 2023).
